Experiment [1] concerns the target T1, recombinant human Ang2 carrier-free (R&D Systems, Cat#623-AN-025/CF) (human, UniProt O15123 19-496).
T1 construct: Bought recombinant protein; also called angiopoietin 2
T1 sequence: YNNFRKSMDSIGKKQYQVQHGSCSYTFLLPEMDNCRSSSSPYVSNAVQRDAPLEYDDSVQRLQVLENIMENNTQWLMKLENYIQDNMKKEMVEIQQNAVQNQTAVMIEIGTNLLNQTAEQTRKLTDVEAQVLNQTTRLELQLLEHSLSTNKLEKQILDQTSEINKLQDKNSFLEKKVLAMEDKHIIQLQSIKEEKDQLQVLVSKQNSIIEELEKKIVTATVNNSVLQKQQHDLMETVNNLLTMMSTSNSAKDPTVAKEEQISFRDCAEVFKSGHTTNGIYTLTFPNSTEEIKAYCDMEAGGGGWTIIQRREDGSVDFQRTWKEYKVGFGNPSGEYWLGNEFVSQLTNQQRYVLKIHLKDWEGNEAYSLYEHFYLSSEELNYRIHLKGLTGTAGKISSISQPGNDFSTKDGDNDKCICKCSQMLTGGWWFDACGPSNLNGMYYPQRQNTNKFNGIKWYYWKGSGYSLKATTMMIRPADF
Kind of experiment: SPR (BIAcore), Ang2 immobilised on CM5. As for the experimental part:
(§1) Peptide-protein binding was analyzed using surface plasmon resonance. Analysis of the to interaction between CGEN-H2 [SEQ ID NO: 1], CGEN-H3 [SEQ ID NO: 2], CGEN-A8 [SEQ ID NO: 3], CGEN-H7 [SEQ ID NO: 4], CGEN-G4 [SEQ ID NO: 5], CGEN-G6 [SEQ ID NO: 6], CGEN-F9 [SEQ ID NO: 7], CGEN-F12 [SEQ ID NO: 8], CGEN-C6 [SEQ ID NO: 9], CGEN-A11 [SEQ ID NO: 10], and CGEN-G2 [SEQ ID NO: 11] peptides and recombinant human Ang1 carrier-free (R&D Systems, Cat#923-AN-025/CF, Lot#FHW1507031), human Ang2 carrier-free (R&D Systems, Cat#623-AN-025/CF, Lot#BNO0457121), and human Ang4 carrier-free (R&D Systems, Cat#964-AN-025/CF, Lot#ELM025121) was conducted using the BIAcore biosensor (Pharmacia Biosensor, Uppsala, Sweden). The recombinant Ang1, Ang2, and Ang4 were immobilized directly to a CM5 sensor chip. Solutions containing 10-50 μM of CGEN-H2 [SEQ ID NO: 1], CGEN-H3 [SEQ ID NO: 2], CGEN-A8 [SEQ ID NO: 3], CGEN-H7 [SEQ ID NO: 4], CGEN-G4 [SEQ ID NO: 5], CGEN-G6 [SEQ ID NO: 6], CGEN-F9 [SEQ ID NO: 7], CGEN-F12 [SEQ ID NO: 8], CGEN-C6 [SEQ ID NO: 9], CGEN-A11 [SEQ ID NO: 10], and CGEN-G2 [SEQ ID NO: 11] peptides were injected into the sample chamber of the BIACORE device at a rate of […] and the interaction was monitored using surface plasmon resonance. […] Binding of CGEN-C6 to Ang2 was not sufficiently strong and too noisy for kinetic measurements or determination of affinity constant.
(In general: Surface plasmon resonance follows binding to a sensor surface in real time, without labels.)

Experiment [2] has as its target T2, recombinant human Ang1 carrier-free (R&D Systems, Cat#923-AN-025/CF) (human, UniProt Q15389 20-498, limits assumed).
T2 construct: Bought recombinant protein; also called angiopoietin 1
T2 sequence: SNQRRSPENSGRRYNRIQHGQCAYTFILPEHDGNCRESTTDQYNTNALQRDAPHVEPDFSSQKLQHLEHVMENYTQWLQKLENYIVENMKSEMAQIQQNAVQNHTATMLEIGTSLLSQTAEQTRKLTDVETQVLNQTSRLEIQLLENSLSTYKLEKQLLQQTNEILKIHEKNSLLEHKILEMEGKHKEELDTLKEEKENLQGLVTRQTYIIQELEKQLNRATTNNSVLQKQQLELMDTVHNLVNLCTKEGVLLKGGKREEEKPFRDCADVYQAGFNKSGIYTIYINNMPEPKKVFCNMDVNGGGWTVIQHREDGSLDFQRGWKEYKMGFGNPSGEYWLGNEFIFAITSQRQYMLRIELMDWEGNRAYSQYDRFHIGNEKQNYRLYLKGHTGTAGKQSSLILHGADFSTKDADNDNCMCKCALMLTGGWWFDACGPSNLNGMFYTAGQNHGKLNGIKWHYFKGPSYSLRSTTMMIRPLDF
Kind of experiment: SPR (BIAcore), Ang1 immobilised on CM5, peptide 1.25-0.039 µM, 1:1 Langmuir fit. As for the experimental part:
(§2) Peptide-protein binding was analyzed using surface plasmon resonance. […] Solutions containing 10-50 μM of CGEN-H2 [SEQ ID NO: 1], CGEN-H3 [SEQ ID NO: 2], CGEN-A8 [SEQ ID NO: 3], CGEN-H7 [SEQ ID NO: 4], CGEN-G4 [SEQ ID NO: 5], CGEN-G6 [SEQ ID NO: 6], CGEN-F9 [SEQ ID NO: 7], CGEN-F12 [SEQ ID NO: 8], CGEN-C6 [SEQ ID NO: 9], CGEN-A11 [SEQ ID NO: 10], and CGEN-G2 [SEQ ID NO: 11] peptides were injected into the sample chamber of the BIACORE device at a rate of […] and the interaction was monitored using surface plasmon resonance. […]
(§3) Peptides CGEN-G6 [SEQ ID NO: 6], CGEN-F9 [SEQ ID NO: 7], CGEN-F12 [SEQ ID NO: 8], CGEN-A11 [SEQ ID NO: 10], and CGEN-G2 [SEQ ID NO: 11] were capable of binding to immobilized Ang1, Ang2, and Ang4 on the chip and were further analyzed for binding kinetics, as follows. Solutions containing different concentrations of CGEN-G6 [SEQ ID NO: 6], CGEN-F9 [SEQ ID NO: 7], CGEN-F12 [SEQ ID NO: 8], CGEN-A11 [SEQ ID NO: 10], and CGEN-G2 [SEQ ID NO: 11] peptides (as indicated in Table 2) were injected into the sample chamber of the BIACORE device at a rate of […] and the interaction was monitored using surface plasmon resonance.

Experiment [3] deals with T3, recombinant human Ang4 carrier-free (R&D Systems, Cat#964-AN-025/CF) (human, UniProt Q9Y264 25-503, limits assumed).
T3 construct: Bought recombinant protein; also called angiopoietin 4
T3 sequence: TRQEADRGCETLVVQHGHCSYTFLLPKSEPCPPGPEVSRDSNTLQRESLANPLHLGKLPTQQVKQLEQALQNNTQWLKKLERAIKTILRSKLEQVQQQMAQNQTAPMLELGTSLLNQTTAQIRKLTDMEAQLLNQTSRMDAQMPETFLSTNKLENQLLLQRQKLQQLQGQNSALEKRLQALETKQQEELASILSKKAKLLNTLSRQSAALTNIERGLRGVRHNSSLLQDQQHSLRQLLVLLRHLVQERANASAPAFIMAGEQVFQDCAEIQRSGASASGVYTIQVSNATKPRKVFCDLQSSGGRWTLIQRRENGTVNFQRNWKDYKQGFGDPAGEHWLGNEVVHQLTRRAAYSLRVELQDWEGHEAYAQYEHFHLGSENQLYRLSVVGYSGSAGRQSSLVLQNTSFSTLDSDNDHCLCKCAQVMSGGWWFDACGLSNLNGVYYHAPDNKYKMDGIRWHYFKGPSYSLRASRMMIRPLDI
The experiment is described as follows: SPR (BIAcore), Ang4 immobilised on CM5, peptide 1.25-0.039 µM, 1:1 Langmuir fit. As for the experimental part: as §2, §3

Experiment [4] has as its target T2, recombinant human Ang1 carrier-free …. Kind of experiment: SPR competition (BIAcore), Tie-2/Fc immobilised; Ang1 100-500 nM with peptide 10-50 µM at 1:100. As for the experimental part: Peptide-protein interaction was analyzed using surface plasmon resonance. Analysis of is the interaction between CGEN-G6 [SEQ ID NO: 6], CGEN-F9 [SEQ ID NO: 7], CGEN-C6 [SEQ ID NO: 9], CGEN-A11 [SEQ ID NO: 10], and CGEN-G2 [SEQ ID NO: 11] peptides and recombinant human Tie-2/Fc chimera (carrier-free, R&D Systems, Cat#313-TI, Lot#BKC0707121) was conducted using the BIAcore biosensor (Pharmacia Biosensor, Uppsala, Sweden). The recombinant Tie-2/Fc chimera was immobilized directly to a CM5 sensor chip. Solutions containing 10-50 μM of CGEN-G6 [SEQ ID NO: 6], CGEN-F9 [SEQ ID NO: 7], CGEN-C6 [SEQ ID NO: 9], CGEN-A11 [SEQ ID NO: 10], and CGEN-G2 [SEQ ID NO: 11] were injected into the sample chamber of the BIACORE device at a rate of 20 μl/min and the interaction was monitored using surface plasmon resonance. In addition, solutions containing 100-500 nM of Ang1, Ang2, and Ang4 proteins were injected alone or in combination with 10-50 μM of CGEN-G6 [SEQ ID NO: 6], CGEN-F9 [SEQ ID NO: 7], CGEN-C6 [SEQ ID NO: 9], CGEN-A11 [SEQ ID NO: 10], and CGEN-G2 [SEQ ID NO: 11] peptides at a constant ratio of 1:100 (Ang ligand to peptide) into the sample chamber of the BIACORE device at a rate of 20 μl/min and the interaction was monitored using surface plasmon resonance.
Binding of Ang2 to Tie2 was reduced by 91-100% after incubation with CGEN-G6 [SEQ ID NO: 6] and CGEN-C6 [SEQ ID NO: 9], and to a lesser extent after incubation with CGEN-A11 [SEQ ID NO: 10] and CGEN-F9 [SEQ ID NO: 7] peptides (FIG. 5B). […] Binding of peptides alone to Tie2 was negligible in most cases.

The target is the same in experiment [5]. The experiment is described as follows: SPR (BIAcore), Ang1 immobilised on CM5, peptide 0.625-0.039 µM, 1:1 Langmuir fit. As for the experimental part:
as §2, §3

In experiment [6] the target is T1, recombinant human Ang2 carrier-free …. The experiment is described as follows: SPR (BIAcore), Ang2 immobilised on CM5, peptide 0.625-0.039 µM, 1:1 Langmuir fit. As for the experimental part: as §2, §3
The target of experiment [7] is T3, recombinant human Ang4 carrier-free …. Kind of experiment: SPR (BIAcore), Ang4 immobilised on CM5, peptide 0.625-0.039 µM, 1:1 Langmuir fit. As for the experimental part: as §2, §3
For experiment [8], the target named is T1, recombinant human Ang2 carrier-free …. The experiment is described as follows: SPR (BIAcore), Ang2 immobilised on CM5, peptide 10-50 µM. As for the experimental part: as §1
For experiment [9], the target named is T3, recombinant human Ang4 carrier-free …. Kind of experiment: SPR (BIAcore), Ang4 immobilised on CM5 chip, peptide injected. As for the experimental part: as §1
In experiment [10] the target is T2, recombinant human Ang1 carrier-free …. The experiment is described as follows: SPR (BIAcore), Ang1 immobilised on CM5, peptide 25-1.56 µM, 1:1 Langmuir fit. As for the experimental part:
as §2, §3

In experiment [11] the target is T1, recombinant human Ang2 carrier-free …. Kind of experiment: SPR (BIAcore), Ang2 immobilised on CM5, peptide 25-1.56 µM, 1:1 Langmuir fit. As for the experimental part:
as §2, §3

For experiment [12], the target named is T3, recombinant human Ang4 carrier-free …. The experiment is described as follows: SPR (BIAcore), Ang4 immobilised on CM5, peptide 25-1.56 µM, 1:1 Langmuir fit. As for the experimental part:
as §2, §3

These results are taken from patent US20140004175A1 (COMPUGEN, published 2014).

As usually defined, the Kd is the concentration at which binding is half-saturated.

Where only a bound is given, the exact number is not on record here.

B1: CGEN-G6 (SEQ ID NO: 6) (peptide)
peptide: Ac-DLMETVNNLLTMMSTSNSAKD-NH2
notes: MW 2356.8
Regarding B1, the binding result in experiment [1] was “binds”. In addition, the figures for the Kd in experiment [2] and in [3] were 0.0133 µM and 0.0221 µM, respectively. Also, the “reduction of Ang1 binding to Tie2” value in experiment [4] is at most 34%.

B2: CGEN-G2 (SEQ ID NO: 11) (peptide)
peptide: Ac-TQQVKQLEQALQNNTQWLKKLERAIKTIL-NH2
On to B2, for which the Kd is 0.0174 µM in experiment [5], 0.0566 µM in experiment [6] and 0.025 µM in [7].

B3: CGEN-F12 (SEQ ID NO: 8) (peptide)
peptide: Ac-QHSLRQLLVLLRHLVQERANASA-NH2
notes: MW 2694.3
B3: the Kd in [5] worked out at 0.00188 µM; in experiment [6] it was 5.84 µM; in experiment [7] it was 0.000243 µM.

B4: CGEN-C6 (SEQ ID NO: 9) (peptide)
peptide: Ac-TDMEAQLLNQTSRMDAQM-NH2
notes: MW 2124.5
B4: the values for the binding result in [8] and in experiment [9] were “binds” and “no binding (tested: 10-50 µM)”, respectively. Also, the “reduction of Ang1 binding to Tie2” value in experiment [4] is at most 34%.

B5: CGEN-A11 (SEQ ID NO: 10) (peptide)
peptide: Ac-ETFLSTNKLENQ-NH2
notes: MW 1464.7
With B5, the Kd was 6.74 µM in experiment [10], 2.36 µM in experiment [11] and 3.69 µM in [12]. Moreover, the “reduction of Ang1 binding to Tie2” value in [4] was at most 34%.

B6: CGEN-F9 (SEQ ID NO: 7) (peptide)
peptide: Ac-QEELASILSKKAKLLNTLSRQSAALTNIERGLRGVR-NH2
notes: MW 4006.8
For B6, the Kd in experiment [10] stood at 21.4 µM; in [11], 3.07 µM; in [12], 2.82 µM. Further, the “reduction of Ang1 binding to Tie2” value in experiment [4] was at most 34%.
